# Measurements taken from the DeepSol protein solubility set.
# Experiment: soluble on expression in E. coli; label from the status in PepcDB or PDB records
row,Sequence,soluble on expression in E. coli
1,MTSIRKWQVGESLPEVTLAPVSRLDLIKYAGASGDYNPIHTIDEEAKKAGLPGIIAHGMWTMGNLAKLFTPYYEEGFVQDYFVRFQSMVFLNDVITLKATVKEKDKKAIRFAVAAVNQHGKEVIKGEAVFSLYE,not soluble
2,SRPADLLQLVLLLDLPRDLGGMGCSSPPCECHQEEDFRVTCKDIQRIPSLPPSTQTLKLIETHLRTIPSHAFSNLPNISRIYVSIDVTLQQLESHSFYNLSKVTHIEIRNTRNLTYIDPDALKELPLLKFLGIFNTGLKMFPDLTKVYSTDIFFILEITDNPYMTSIPVNAFQGLCNETLTLKLYNNGFTSVQGYAFNGTKLDAVYLNKNKYLTVIDKDAFGGVYSGPSLLLPLGRKSLSFETQKAPRSSMPS,soluble
3,MDTWKVGPVELKSRLILGSGKYEDFGVMREAIAAAKAEVVTVSVRRVELKAPGHVGLLEALEGVRLLPNTAGARTAEEAVRLARLGRLLTGERWVKLEVIPDPTYLLPDPLETLKAAERLIEEDFLVLPYMGPDLVLAKRLAALGTATVMPLAAPIGSGWGVRTRALLELFAREKASLPPVVVDAGLGLPSHAAEVMELGLDAVLVNTAIAEAQDPPAMAEAFRLAVEAGRKAYLAGPMRPREAASPSSPVEGVPFTPTGPRPGRGPQ,soluble
4,MPGKLLWGDIMELEAPLEESESQKKERQKSDRRKSRHHYDSDEKSETRENGVTDDLDAPKAKKSKMKEKLNGDTEEGFNRLSDEFSKSHKSRRKDLPNGDIDEYEKKSKRVSSLDTSTHKSSDNKLEETLTREQKEGAFSNFPISEETIKLLKGRGVTYLFPIQVKTFGPVYEGKDLIAQARTGTGKTFSFAIPLIERLQRNQETIKKSRSPKVLVLAPTRELANQVAKDFKDITRKLSVACFYGGTSYQSQINHIRNGIDILVGTPGRIKDHLQSGRLDLSKLRHVVLDEVDQMLDLGFAEQVEDIIHESYKTDSEDNPQTLLFSATCPQWVYKVAKKYMKSRYEQVDLVGKMTQKAATTVEHLAIQCHWSQRPAVIGDVLQVYSGSEGRAIIFCETKKNVTEMAMNPHIKQNAQCLHGDIAQSQREITLKGFREGSFKVLVATNVAARGLDIPEVDLVIQSSPPQDVESYIHRSGRTGRAGRTGICICFYQPRERGQLRYVEQKAGITFKRVGVPSTMDLVKSKSMDAIRSLASVSYAAVDFFRPSAQRLIEEKGAVDALAAALAHISGASSFEPRSLITSDKGFVTMTLESLEEIQDVSCAWKELNRKLSSNAVSQITRMCLLKGNMGVCFDVPTTESERLQAEWHDSDWILSVPAKLPEIEEYYDGNTSSNSRQRSGWSSGRSGRSGRSGGRSGGRSGRQSRQGSRSGSRQDGRRRSGNRNRSRSGGHKRSFD,soluble
5,MAHHHHHHMDSASGDGGDGAPASAERHSLKPLRWIEEVRDASQPNAVFLNVYDVRGSSTLLYSVGWGVHHVGVQVYGKEYQYGHRPIGKGIGSVKPHQSPPHTYREQFFLGQTQLSASEVEKLVVAFSDKVEWLGSNYHLVKHNCIDFARAFCEALLPPAVRVEQARRAEEAGLSQKMHMVEVEVDGMRHSVPVLIPHHVDRLARYAAHYLPKSSMQRFDRLESSFFSMSEVPQERGQPTAADPDTNRSTTPTPQPHTRTSH,not soluble
6,ALQNKEEEKKKVKKLQKSYFDVLGICCTSEVPIIENILKSLDGVKEYSVIVPSRTVIVVHDSLLISPFQIAKALNEARLEANVRVNGETSFKNKW,soluble
7,MSLGRLVLNTKEELANERLMTLKIAEMKEAMRTLIFPPSMHFFQAKHLIERSQVFNILRMMPKGAALHLHDIGIVTMDWLVRNVTYRPHCHICFTPRGIMQFRFAHPTPRPSEKCSKWILLEDYRKRVQNVTEFDDSLLRNFTLVTQHPEVIYTNQNVVWSKFETIFFTISGLIHYAPVFRDYVFRSMQEFYEDNVLYMEIRARLLPVYELSGEHHDEEWSVKTYQEVAQKFVETHPEFIGIKIIYSDHRSKDVAVIAESIRMAMGLRIKFPTVVAGFDLVGHEDTGHSLHDYKEALMIPAKDGVKLPYFFHAGETDWQGTSIDRNILDALMLNTTRIGHGFALSKHPAVRTYSWKKDIPIEVCPISNQVLKLVSDLRNHPVATLMATGHPMVISSDDPAMFGAKGLSYDFYEVFMGIGGMKADLRTLKQLAMNSIKYSTLLESEKNTFMEIWKKRWDKFIADVATKEGHHHHHH,not soluble
8,GMAKIEKNAPTMEKKPELFNIMEVDGVPTLILSKEWWEKVANFQAKPDDLILATYPKSGTTWMHEILDMILNDGDVEKCKRAQTLDRHAFLELKFPHKEKPDLEFVLEMSSPQLIKTHLPSHLIPPSIWKENCKIVYVARNPKDCLVSYYHFHRMASFMPDPQNLEEFYEKFMSGKVVGGSWFDHVKGWWAAKDMHRILYLFYEDIKKDPKREIEKILKFLEKDISEEILNKIIYHTSFDVMKQNPMTNYTTLPTSIMDHSISPFMRKGMPGDWKNYFTVAQNEEFDKDYQKKMAGSTLTFRTEI,soluble
9,MGSDKIHHHHHHMHGREAEDGVRSNPTGRQLRFGAELRKLREQAGLSATDAGQLLGIKQTQVSNMEAGRVGVSADRVRTLACHYECSDKALVEAIAAMTGDRTRGWWEEYREILPVGLLDLAELEHHATRLRTAVTVHIPGLFQTTEYAREIFRQAVPELPQPDVEHRVSFRIKRQAILFRDPPTPHQIIVHEAALRMRFGGSDVTRDQLKYLTAMNEREHISVQVIPFDTGVLPGSGQSIYYAEGPVPQLDTVNLDQSHGPVFLDAGAQLRKYRGLLDRMESAALSPEDSQKFIHTILKAL,not soluble
10,MTAKTLIVLIGPTGVGKTELSLRIAEYFKTSIISSDSRQLYAELKIGTAAPTPEQLKRVPHYFVGTLQLTDYYSAAQYETEVMSVLEQLFQQHHVVLLTGGSMMYVDAICKGIDDIPTVDAETRELLLHKYDTEGLDNLCAELKLLDPEYYKIVDLKNPKRVIHALEICYMTGKTYTSFRTQQKKERPFHILKIGLTRDRAELYDRINRRVDQMMDEGLLEEARSVYAHRELNSLNTVGYKEIFKYLDGEWDLDFAIEKIKQNSRIYSRKQMTWFKRDEEIRWFHPEQEKEILSYLQASIKLEHHHHHH,soluble
11,MSGNIGANPAIIKLSWIEAAVDAHKTLNFEPSGRKRIGFDVADSGTDKCANVYRHGSVVFWADEWKAKEDELLKSCQRTYQAALEREADIVYDSIGVGASAGAKFSEINADRKSENAYARRVNYQRFNAGAGVHEPDDEYNGIPNKDFFANLKAQAWWLTVSEIRLTPLTTENSILWMS,not soluble
12,MAFLKIDNGELLKNIRQFAKKNGLTLAEVATLAGLSASAIYSWKKHTPSVGTLKEVAQVLGTSYTKLVGKDKEPTAKATNAAAVDLKKVIENKKNQFEYDGQPITNEQMKIIRNVLKSMFKTPRL,not soluble
13,MGSDKIHHHHHHMENDILKYQKAYNTIVKLLKSNEKVLATMVFGSIVSGDLWEESDIDLFVIIDEEMANIKNIYMEQNDVPIHIKLMGKNKFVLLNENDIKGGFFHRIFASSKLVFSKDKDITEKYDSGRYYPDIDREKWNMVYISDLLKSLGLCKKYLNNKRIYTAYYFSVKCVEEFSKLYINHSGYMVNKDDVNMLTNINGDFKNYIDNLFFSKDNVEEAIKEVVDKIEEFINKNIKSITAILIDYMRDKDKSLSAEDINTDPVFNDFSINFEEILSKLWEFNIIKKGTRKYSIKDGKALCMENVYYL,not soluble
14,MSLDDQITNAAEKGVTDRFYGLIPNGYLFIENGLISAFGPMSALQENLTNSTAMSQIDDAIDAAGRLLTPALIDCHTHVVYGGHRALEFEMRLKGASYAEMAKAGGGIVSTVSATRSQSVEQLVQGALARVDALIAEGISLIEIKSGYGLDIETELRMLRAARSIEAARPVRVITSFLGAHAMPPGEDMSPEGYIEKTCIPALHQAHKEGLVDAVDGFCESIAFSADQIVPLFNVAAELGLPVKLHAEQLTRCGGSLLAASHKALSVDHVEYANKEDVRALAAAGCSAVLLPGAFYTLRETQKPPVALFRDQGVPMAIATDANPGSSPMTSLLLAMNMGCTLFGMTPYEALAGVTRNAARALGVSDSGMLRPGLRADLALWDVAHPAELAYRIGFNPLHRRIFGGQIAEGHHHHHH,soluble
15,MFVAEHEVEIRYAETDQMGVVYHSNYLVWLELGRTKLIQDLGFSYVEMEKEGIISPVLDLQISYRKAMRYGEKASVKTWVDTVSPLRVVYGYEIYNGDGELCITASTTNICAKKEGFRPVSFKKLYPEWYAKYEEIKKK,not soluble
16,MGSDKIHHHHHHMMPMDWEITFKGITYECINCAYCCSCKGWRIYLNYFDRLKLKDYEYAIEPCEGEFKYRLKVNEKGCVLLNNNLCRIHLEKGYEFKPLMCMIFPFSCMIKWDGTPLLIIKHYCSGIKKGKISKKVVNEAIELIKELYFDMFEEIIENGMEHSSKTEIFENFRVDWEEREDFGRYIFSSKTFDEMFERCREIFGNKINKLNLEEIDEIKNNLQRYNTKENEEEILRYLLELNRREHFRKLPFYREVNKLINIGNYLTKYKNVFKGEGEVDKKLFLNLK,not soluble
17,MSLMRIVFDIGGSVLVPEKPDVDFITKLGYELTKISEDHEIAIVVGGGKVAREYIEVASKFNTNETFKDYLGIQITRANAMLLIAALKERAYPQVVSDFWEAWKAIQLKKIPVMGGTHPGHTTDAVSALLAEFLSADLLVVITNVDGVYTEDPKKNPNAKKIPKMKAKDLVDIVSREAGKAGVSTVIDPLAAKIIMRSGIKTYVIGKEDALKLFDVIKGNHNGTIIEPEGHHHHHH,soluble
18,MSLSFTPLHTTSEAFIEKALPWLEDRYFHIAYLNPNGYTAYPQGAFRHYLAFGSEAAIHVSDATRVFETWNEIKKGYTNEWIFVFASYDGKNSVEQLHTSKEAGIAFAAATFFIPEHVWEIQPDGILIHKGSGSSLVTEIQHAEPSTPVQQSDIFVKQVVSKESYFNAFDELQQIIAQGDAYEINYCIPFTAKGNISPAATYQRLNKKTPMPFSVYYKFNTEYILSASPERFIKKTGDTIISQPIKGTSKRGKSKAEDEMLKQQLGTSEKEQSENTMIVDLVRNDLSRTAVAGSVCVPELSGLYTFPNVHQLISTVQSTIDPACSSIDVIQQAFPMGSMTGAPKVNVMKFIDRIESMARGPFSGTVGYMDPHDNFDFNVLIRSIFYNSATQELFMEAGSAITSYAKAETEYEECLLKITPMIHILNNQEGHHHHHH,soluble
19,MGHHHHHHSHVLLVTANVGSLFDDPENLQKNWLREFYQVVHTHKPHFMALHCQEFGGKNYEASMSHVDKFVKELLSSDAMKEYNRARVYLDENYKSQEHFTALGSFYFLHESLKNIYQFDFKAKKYRKVAGKEIYSDTLESTPMLEKEKFPQDYFPECKWSRKGFIRTRWCIADCAFDLVNIHLFHDASNLVAWETSPSVYSGIRHKALGYVLDRIIDQRFEKVSYFVFGDFNFRLDSKSVVETLCTKATMQTVRAADTNEVVKLIFRESDNDRKVMLQLEKKLFDYFNQEVFRDNNGTALLEFDKELSVFKDRLYELDISFPPSYPYSEDARQGEQYMNTRCPAWCDRILMSPSAKELVLRSESEEKVVTYDHIGPNVCMGDHKPVFLAFRIMPG,not soluble
20,MLPLPWWMLGVGPEEEADESSDYDMVDGHSIEVQESVPTTPVSVFHTPSQSSIIDISDQLVDLPTFLKVAKRRSSTVLETATPAKTPKIQLSERRRKFQRNDTEVMIKTGEPVVDCDETLGLNWLFDTDYPRDAGSGDLLNSTFRIDHRNHGEGTSQITESPKNRDFPLFFSSFDDTTVLFNTTIAGDIDVNERNQASGDWIFRKDKSPTNDPIENDQETDEKTKSELGDGGEIVFKEPVQSTKKTRGRKRGTSVRIEKLSTSRRTSAKKKEEKQKETETFDADKNENPSTPTAPPTMTRRHTPSRKAKTNRTFRL,not soluble
